Among the data in PMC9602544 are absorbance values, retold here.

This assay addresses human plasma fibronectin (human). As to the kind of experiment: ELISA; whole-cell ELISA; 1 ug human plasma Fn coated on Maxisorp wells, blocked with 2% BSA; ca. 2.5 x 10^7 washed bacteria added for 2 h at 37°C; attached bacteria detected with anti-B. henselae IgG, absorbance at 450 nm; triplicate.

human plasma fibronectin (human), sequence (P02751 32-2477): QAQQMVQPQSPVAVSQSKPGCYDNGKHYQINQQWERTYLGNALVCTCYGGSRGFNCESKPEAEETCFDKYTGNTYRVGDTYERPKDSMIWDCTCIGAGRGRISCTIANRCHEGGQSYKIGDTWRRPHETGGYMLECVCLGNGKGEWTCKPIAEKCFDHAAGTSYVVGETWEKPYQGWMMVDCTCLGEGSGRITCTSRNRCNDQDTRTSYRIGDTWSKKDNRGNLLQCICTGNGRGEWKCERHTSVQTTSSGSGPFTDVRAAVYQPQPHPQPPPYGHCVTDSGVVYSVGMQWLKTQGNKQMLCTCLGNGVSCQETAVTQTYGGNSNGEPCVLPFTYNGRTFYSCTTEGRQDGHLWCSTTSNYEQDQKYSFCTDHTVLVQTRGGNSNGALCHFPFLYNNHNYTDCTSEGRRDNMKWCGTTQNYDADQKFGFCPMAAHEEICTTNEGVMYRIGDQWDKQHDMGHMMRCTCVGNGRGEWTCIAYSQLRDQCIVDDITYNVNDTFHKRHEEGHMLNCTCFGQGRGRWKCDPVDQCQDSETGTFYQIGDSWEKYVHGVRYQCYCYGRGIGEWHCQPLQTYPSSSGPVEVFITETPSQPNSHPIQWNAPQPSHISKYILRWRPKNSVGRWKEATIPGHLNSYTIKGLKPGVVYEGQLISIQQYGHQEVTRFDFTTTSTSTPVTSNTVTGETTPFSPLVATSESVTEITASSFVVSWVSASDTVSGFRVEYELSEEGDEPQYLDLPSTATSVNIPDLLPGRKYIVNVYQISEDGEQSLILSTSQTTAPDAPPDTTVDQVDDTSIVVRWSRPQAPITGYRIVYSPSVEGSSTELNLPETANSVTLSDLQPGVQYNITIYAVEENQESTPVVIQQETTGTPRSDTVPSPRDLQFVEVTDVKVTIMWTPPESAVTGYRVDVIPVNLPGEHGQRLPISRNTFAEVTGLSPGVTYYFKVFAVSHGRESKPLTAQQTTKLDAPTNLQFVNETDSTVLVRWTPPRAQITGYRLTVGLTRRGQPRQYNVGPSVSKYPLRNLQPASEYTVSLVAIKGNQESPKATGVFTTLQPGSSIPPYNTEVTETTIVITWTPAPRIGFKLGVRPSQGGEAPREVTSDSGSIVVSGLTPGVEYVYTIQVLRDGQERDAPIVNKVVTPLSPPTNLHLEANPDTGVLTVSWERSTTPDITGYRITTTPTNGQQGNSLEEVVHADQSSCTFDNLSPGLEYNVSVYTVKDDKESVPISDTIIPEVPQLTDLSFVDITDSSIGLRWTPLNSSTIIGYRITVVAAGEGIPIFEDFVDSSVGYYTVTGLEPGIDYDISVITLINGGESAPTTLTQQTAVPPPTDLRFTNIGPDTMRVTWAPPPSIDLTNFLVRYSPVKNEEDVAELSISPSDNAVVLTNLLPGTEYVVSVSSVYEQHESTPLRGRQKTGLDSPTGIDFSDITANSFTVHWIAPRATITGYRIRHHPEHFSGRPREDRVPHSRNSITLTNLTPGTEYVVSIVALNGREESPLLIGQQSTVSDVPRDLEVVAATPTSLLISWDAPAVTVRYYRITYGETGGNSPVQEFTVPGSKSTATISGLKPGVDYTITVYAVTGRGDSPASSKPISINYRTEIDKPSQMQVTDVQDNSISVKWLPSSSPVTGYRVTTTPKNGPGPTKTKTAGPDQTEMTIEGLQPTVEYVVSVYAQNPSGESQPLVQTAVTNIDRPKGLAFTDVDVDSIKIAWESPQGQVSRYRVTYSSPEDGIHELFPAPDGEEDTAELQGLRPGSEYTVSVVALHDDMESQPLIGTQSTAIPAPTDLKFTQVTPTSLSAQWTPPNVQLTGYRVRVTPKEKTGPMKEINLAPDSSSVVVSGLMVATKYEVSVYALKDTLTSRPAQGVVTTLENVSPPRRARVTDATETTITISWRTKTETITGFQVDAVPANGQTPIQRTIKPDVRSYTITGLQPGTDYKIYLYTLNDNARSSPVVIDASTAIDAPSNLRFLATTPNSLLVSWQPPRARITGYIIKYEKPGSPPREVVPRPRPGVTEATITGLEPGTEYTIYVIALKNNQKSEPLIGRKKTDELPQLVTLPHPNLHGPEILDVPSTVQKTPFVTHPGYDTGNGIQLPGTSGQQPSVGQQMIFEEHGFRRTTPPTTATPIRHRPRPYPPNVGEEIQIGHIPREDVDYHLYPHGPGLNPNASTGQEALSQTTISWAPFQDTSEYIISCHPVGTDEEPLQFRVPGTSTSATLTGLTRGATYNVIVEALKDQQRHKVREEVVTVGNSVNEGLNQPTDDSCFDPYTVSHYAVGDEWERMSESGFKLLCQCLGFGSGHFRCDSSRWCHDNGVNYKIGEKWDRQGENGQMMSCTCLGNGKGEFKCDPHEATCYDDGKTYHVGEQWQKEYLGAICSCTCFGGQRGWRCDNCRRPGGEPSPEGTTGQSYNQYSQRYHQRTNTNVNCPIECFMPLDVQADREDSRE

On to “Bartonella adhesin A (BadA) of B. henselae Marseille, wild type (from UniProt Q5MWV9 48-3082) (natural protein)”, for which the absorbance at 450 nm, whole-cell ELISA was 0.908.
